In PMC8563793, “C-Glycoside metabolism in the gut and in nature: Identification, characterization, structural analyses and distribution of C-C bond-cleaving enzymes” (Nature Communications, 2021):
Values belong to the molecule of their own block, whether it stands above or below them.

What was measured:
EuCGD (DfgA-B complex) = EuCGD (DfgA-B complex) ([Eubacterium] cellulosolvens, UniProt I5AX49+I5AX50); assay: steady-state kinetics, HPLC of aglycone; details: 30 °C, 2 min, 2 μM enzyme; enzymatically prepared substrate
purified protein [1] = substrate: O=C1[C@@H](O)[C@H](c2c(O)cc(O)c3c(=O)cc(-c4ccc(O)c(O)c4)oc23)O[C@H](CO)[C@H]1O; assay: purified protein; details: 30 °C, 30 min, 2 μM enzyme, enzymatically prepared substrate
[2] = substrate: O=C1[C@@H](O)[C@H](c2c(O)cc3oc(-c4ccc(O)cc4)cc(=O)c3c2O)O[C@H](CO)[C@H]1O; assay: steady-state kinetics, HPLC of aglycone; assay type: biochemical, Microbacterium trichothecenolyticum; details: 30 °C, 30 min, 2 μM enzyme, enzymatically prepared substrate
[3] = substrate: O=C1[C@@H](O)[C@H](c2c(O)cc3oc4cc(O)c(O)cc4c(=O)c3c2O)O[C@H](CO)[C@H]1O; assay: steady-state kinetics, HPLC of aglycone; assay type: biochemical, Microbacterium trichothecenolyticum; details: 30 °C, 30 min, 2 μM enzyme, enzymatically prepared substrate
[4] = substrate: O=C1[C@@H](O)[C@H](c2c(O)cc3oc(-c4ccc(O)c(O)c4)cc(=O)c3c2O)O[C@H](CO)[C@H]1O; assay: steady-state kinetics, HPLC of aglycone; assay type: biochemical, Microbacterium trichothecenolyticum; details: 30 °C, 30 min, 2 μM enzyme, enzymatically prepared substrate
purified protein [5] = substrate: Cc1c(C(=O)O)c(O)cc2c1C(=O)c1c(O)c([C@@H]3O[C@H](CO)[C@@H](O)C(=O)[C@H]3O)c(O)c(O)c1C2=O; assay: purified protein; details: 30 °C, 30 min, 2 μM enzyme, enzymatically prepared substrate
purified protein [6] = substrate: O=C1[C@@H](O)[C@H](c2c(O)cc3oc(-c4ccc(O)cc4)cc(=O)c3c2O)O[C@H](CO)[C@H]1O; assay: purified protein; details: 30 °C, 2 μM enzyme, enzymatically prepared substrate
purified protein [7] = substrate: O=C1[C@@H](O)[C@H](c2c(O)cc3oc(-c4ccc(O)c(O)c4)cc(=O)c3c2O)O[C@H](CO)[C@H]1O; assay: purified protein; details: 30 °C, 2 μM enzyme, enzymatically prepared substrate
purified protein [8] = substrate: O=C1[C@@H](O)[C@H](c2c(O)cc3oc4cc(O)c(O)cc4c(=O)c3c2O)O[C@H](CO)[C@H]1O; assay: purified protein; details: 30 °C, 30 min, 2 μM enzyme, enzymatically prepared substrate
[9] = substrate: O=C1[C@@H](O)[C@H](c2c(O)ccc3c(=O)c(-c4ccc(O)cc4)coc23)O[C@H](CO)[C@H]1O; assay: steady-state kinetics, HPLC of aglycone; assay type: biochemical, human intestinal bacterium PUE; details: 30 °C, 2 min, 2 μM enzyme, enzymatically prepared substrate
[10] = substrate: O=C1[C@@H](O)[C@H](c2c(O)cc(O)c3c(=O)cc(-c4ccc(O)c(O)c4)oc23)O[C@H](CO)[C@H]1O; assay: steady-state kinetics, HPLC of aglycone; assay type: biochemical, human intestinal bacterium PUE; details: 30 °C, 90 min, 5 μM enzyme, enzymatically prepared substrate

Km (EuCGD (DfgA-B complex)): > 5 mM
Molecule: O=C1[C@@H](O)[C@H](c2c(O)cc3oc4cc(O)c(O)cc4c(=O)c3c2O)O[C@H](CO)[C@H]1O [compound 5, 3’-oxo-mangiferin]

B1: AgCGD2 (Arthrobacter globiformis NBRC 12137) (protein)
chain 1: MSEGIAGSGIELGITLYSLTSEFAAGLYTPETLIKAVADEGLGPGVEFNIAQMLRTYPDVDDDFVKLWRDSMDRYGLTPSAVGTNLDMGRRKDRDMTPDEEYDFFAAQLRTANKLGFHRVVIRSAGKELLRRLLPLAEKYDQKLGYEIHAPQGPNDPKILQIREMYAELGSDRLGFTADFSSTMHSLSPTLFRTLTQMGLPEEHFAVMQDIWRKPLPMQERNQEFEDYLRANNFDPAQLGPFTRLAFNMHGLVPPEEWLDIMPQIFHVHAKFYDIDENGNEPAMDIPRIVRQFVKGGYRGYLSSEWEGHAFADLGESDPIDLVKKQHSLMRRAIEEAVDPTVSQPALVETAK
chain 2: MATHNSLFQDSDVRKHPEGIAVSVQLPWYRSLWLSAVDDVAATVNGVKIPRESLRFELQGQTYSIAELPEQWETLWFVADKPDVVIPLDRIPDAGEEIDVEVILTLRLLYMQIAPMRYVGNRVAVERKVVLA
kcat (purified protein [1]): 0.667 ± 0.083 s⁻¹

B2: MtCGD (Microbacterium trichothecenolyticum) (protein)
chain 1: MTALGTPIQGVTLYSFTRAFHGREYDLEGLIRKTAADGFGPGLEIIGFSSFRGFPAIDDAYAGWFRDLIDEVGLVTTSLAVNADIGIHRDRLLNQDELIEYMTLQIKAAAKLGFPIARVQISIEPDSMEALAPIAEAHGVTLALEVHADQYASHPRILALRDRYEKVGSPFLGFTMDWGATVSGFAPSLIEAYRRRGASEELLGQVVDLWNTYYEQGPPADQADHGQRFGSFIGLAARHGRPDLGIDFGINGTGLFGPARVDDWRTIAPWIKHVHGKFFGIDENGEEPSVPVRDLVKLLVENGYNGAISSEYEGWHWNYWQSPFDIISDEQAVQRSAAEAAGSRMITDLAEARTQLGAWLPNTEGAHA
chain 2: MIPDRIIEQGTLRTDGPRAAVEVRLPWYRALPGSCIAGAELTIDGKTAPAESLRWEMNGAEFTFDELRTNIDEWWFPTDSAVLSGDLDIEADAEHEVTVGLTLYIPYIIISDTETLHIDEKNTKTMKAVAA
Km [2]: 8.2 ± 1.8 mM
kcat [2]: 0.533 ± 0.083 s⁻¹
Km [3]: 6.1 ± 1.4 mM
kcat [3]: 0.01 ± 0.0012 s⁻¹
kcat [4]: 0.35 ± 0.033 s⁻¹

B3: MiCGD (CarB-C complex) (Microbacterium sp.) (protein)
chain 1: MTALALPRLGVTLYSFTPYYHAREYSFEDLIRIAGERDLGPGLEIVGYQSIKGFPKLPDGFVKDFRRRVDEAGLELSAMGANADAGIPHDRLLNEDELTEYMAHQLHTAKELGFPIVRVQHSVTPDLMERLLPLAEKLDLTMGMEIHSPHSVHHPKIQALVERYEKLGSPHLGFIPDWGASLTRLPPSALQTYAAADVPRELLDAYDRQWDVFHAEGVITTDAEQGAQFRRMRELNERFGGDDVSVRIGTNAVGLFGHQRPEDWSAIMPWVVHVHGKFYGIDENGEEPSVPHGLLLRQLVDAGYTGYISSEWEGWHWNTTDDPFEMVAWQHRLMRRIFGEIEAEAGVR
chain 2: MFRERIIVQDSLVADESGSAFRIRLPWYRALPLSTIEELSVTVDGTAFDPARLRIAVNDGEWALAEAQLRTDDVWFVLDDATVRLPGLVLDAGAHEVQATLSMRIPYLPVAGKPLSMAETDQKRMDVKELTA
Km (purified protein [5]): 0.39 mM

B4: EuCGD (DfgA-B complex) ([Eubacterium] cellulosolvens 6) (protein)
chain 1: MYRYEKKGPKRGVALYSYSAEFGLTKTLEDCFEDLHDMGAHGIEILANTHIENYPYPTDEWVEKWWRLCDKYEIVPVEYGNWIDSHVLGDRDLTTEESVEMLKRDIRLAHRLGFTVMRTKMPVINDLLEPVENWKEIIKGALPLAEELGIKMCPEIHTPSNLKGKLVNDFVEFIKETGTKNFGLNIDFSVFRTSFAEGEWVDPNYTPNKPEDIIPLLPYVYCCHAKFIHMSDDFKETTIPYEEVVKTMEDNGYEGYLLSEYEGADKYDEGYEVGQTLRKHHILLKNLLGD
chain 2: MEKQVIQSVGFRNIKNGNGEITGFQFKVKLPYYRGVFLSQIRPGTLFVDGQKIEKDQITWTINGEEYTNQEMRGDFKTHWATTKPAVLKVKMPGGLAQGYHDLKYGFCFTSSYMPPIIQDGLDPDKESMVYMPEFGHHVNERRLLIV
Km (purified protein [6]; 2 min): 3.6 mM
kcat (purified protein [6]; 2 min): 0.003 s⁻¹
Km (purified protein [7]; 2 min): 11 mM
kcat (purified protein [7]; 2 min): 0.0045 s⁻¹

B5: AgCGD1 (Arthrobacter globiformis NBRC 12137) (protein)
chain 1: MTSLGTPIQGVTLYSFTRAFHARQYDLDGLIRKVAAEGFGPGLELIGFSSLRGFPDGIDDAFVGQFRDLVAEVDLIPTSLAVNVDTGIRRDRLMNHDELVEYMSKQIEVAARLGFPIARVQISLTPDAMESLLPVAEKYGVTLALEVHADQHGAHERVLALRDRYEKLDSPLLGFTADWGATVTGFAPSLLEAYRRRGAAEDLLRQVVELWNGFYAEGPPNTQKVHGERFGAFIGLAARSGRPDLGIDFAINGTGLFGPAPLDTWLEIMPWVRHVHGKFFGIDENGEEPSVPVRDLVRQLVENGYSGAISSEYEGWHWNNWQDPFDIIRGEQAVQRSAAANAGSAMITDASEARRILNSHLAQPVRG
chain 2: MIADRIIEHGTLITRDGRAAVEVRIPWYRALPGSCIAGAALTVDGVAAPEDTLRWTMNNRTFSFEELVDETGEWWFPLDSAVLSGDLPVWDDQAEHEVRVDLKLCIPYIITDHGVLHIEEHDTKTMKVAQQ
Km (purified protein [6]; 30 min): 3.5 ± 0.4 mM
kcat (purified protein [6]; 30 min): 0.0767 ± 0.0033 s⁻¹
Km (purified protein [8]): 3.7 ± 0.5 mM
kcat (purified protein [8]): 0.00283 ± 0.00017 s⁻¹
Km (purified protein [7]; 30 min): 3.4 ± 0.3 mM
kcat (purified protein [7]; 30 min): 0.0095 ± 0.00033 s⁻¹

B6: PuCGD (DgpB-C complex) (human intestinal bacterium PUE) (protein)
chain 1: MSNVKLGVTLYSFSTEYCQGKMTLEDCIRTAKELGAAGFEIVATQMIPSYPYVSDKFLGELKSICQYYDMEPVCYGANCDRGLRGDRNLTGDEMVAMAVRDIKNAHKMGCKVVREQWLMGPENFAKLAPFAEHYGVKVGIEVHNPETPITQSTKDYIAAIDKTGSKYLGLIPDFGCFANKPNKMNWDNALADGADKKLLEMARDMKYDNVPYDEAVKRLTAAGAKKVELTTMRDMYTFLTFKKDVSAELQGLKDMIPYCIHMHGKYHYMYENLQEAAIPYDDIMKIVSESDYDGYIVSEYEEYNSGHSIEMLRRHLKMMHNFVD
chain 2: MGLALRLNFVDVVCDDSLKNFWANGKKIGYQFDVRLSYYRGHFLSTIDEIGVKVDGVDVPAENISLCLDGKEYGVAELHDLVNVFWPIIEPATIKVFQPGGLSEEEHDVDFTLYFRSPYMALSETEYQSIDSCGSKRLNVQN
Km [9]: 12 mM
kcat [9]: 0.00683 s⁻¹
Km [10]: 0.79 mM
